US20240124586A1

How the values were obtained:
[1] = molecular target: human C1Q (human) (UniProt P02745); assay: ELISA, antibody coated on the plate, C1q titrated (the concentration is that of C1q)
[2] = molecular target: human C1Q (human) (UniProt P02745); assay: ELISA, antibody coated on the plate, C1q titrated (axis: [C1q] nM), anti-C1q-HRP detection
[3] = molecular target: human CD19 on CD19+ B cell lines (Ramos, Raji) (human) (UniProt P15391); assay: FACS bridging of pre-labelled Jurkat (CD3+) and Raji (CD19+) cells mixed 1:1, negative control
[4] = molecular target: human CD3 on CD3+ Jurkat cells (human) (UniProt P07766); assay: as above
human CD3 on CD3+ Jurkat cells (human), sequence (P07766 23-207, chain 1 of 3): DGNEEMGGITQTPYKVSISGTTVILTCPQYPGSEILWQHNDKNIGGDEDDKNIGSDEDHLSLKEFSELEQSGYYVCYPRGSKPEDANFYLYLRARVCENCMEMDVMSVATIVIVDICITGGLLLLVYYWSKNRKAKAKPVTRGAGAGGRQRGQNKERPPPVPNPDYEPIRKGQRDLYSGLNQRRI
human CD3 on CD3+ Jurkat cells (human), sequence (P09693 23-182, chain 2 of 3, further chain): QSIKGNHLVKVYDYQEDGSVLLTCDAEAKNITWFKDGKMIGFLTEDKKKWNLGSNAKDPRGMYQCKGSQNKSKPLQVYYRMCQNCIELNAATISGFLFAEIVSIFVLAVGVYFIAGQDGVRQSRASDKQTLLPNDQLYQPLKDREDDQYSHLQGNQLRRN
human CD3 on CD3+ Jurkat cells (human), sequence (P04234 22-171, chain 3 of 3, further chain): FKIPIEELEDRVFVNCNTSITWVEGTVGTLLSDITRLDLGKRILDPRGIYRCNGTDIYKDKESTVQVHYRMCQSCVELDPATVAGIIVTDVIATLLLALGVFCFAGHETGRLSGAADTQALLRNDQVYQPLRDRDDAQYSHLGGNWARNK

human C1Q (human), sequence (P02745 23-245 limits assumed, chain 1 of 3): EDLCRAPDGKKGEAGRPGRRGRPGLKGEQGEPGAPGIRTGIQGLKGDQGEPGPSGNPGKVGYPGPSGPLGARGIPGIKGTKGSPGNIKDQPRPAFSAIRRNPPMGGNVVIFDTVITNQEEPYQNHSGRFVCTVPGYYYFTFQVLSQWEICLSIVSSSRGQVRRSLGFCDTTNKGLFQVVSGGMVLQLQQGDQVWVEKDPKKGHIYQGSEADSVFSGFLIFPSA
human C1Q (human), sequence (P02746 28-253 limits assumed, chain 2 of 3, further chain): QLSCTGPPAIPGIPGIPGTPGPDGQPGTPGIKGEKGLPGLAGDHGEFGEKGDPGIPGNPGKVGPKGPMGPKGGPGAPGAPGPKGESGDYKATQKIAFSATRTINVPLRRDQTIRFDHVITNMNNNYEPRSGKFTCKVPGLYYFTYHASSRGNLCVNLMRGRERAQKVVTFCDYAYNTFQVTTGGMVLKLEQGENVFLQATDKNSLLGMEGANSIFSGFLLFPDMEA
human C1Q (human), sequence (P02747 29-245 limits assumed, chain 3 of 3, further chain): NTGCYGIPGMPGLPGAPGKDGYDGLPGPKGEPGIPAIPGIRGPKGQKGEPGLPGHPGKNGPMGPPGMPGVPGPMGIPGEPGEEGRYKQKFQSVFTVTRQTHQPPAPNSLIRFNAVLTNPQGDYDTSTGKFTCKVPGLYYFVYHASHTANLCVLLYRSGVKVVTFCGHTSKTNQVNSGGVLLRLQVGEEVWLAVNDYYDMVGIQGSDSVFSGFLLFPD
human CD19 on CD19+ B cell lines (Ramos, Raji) (human), sequence (P15391 20-556): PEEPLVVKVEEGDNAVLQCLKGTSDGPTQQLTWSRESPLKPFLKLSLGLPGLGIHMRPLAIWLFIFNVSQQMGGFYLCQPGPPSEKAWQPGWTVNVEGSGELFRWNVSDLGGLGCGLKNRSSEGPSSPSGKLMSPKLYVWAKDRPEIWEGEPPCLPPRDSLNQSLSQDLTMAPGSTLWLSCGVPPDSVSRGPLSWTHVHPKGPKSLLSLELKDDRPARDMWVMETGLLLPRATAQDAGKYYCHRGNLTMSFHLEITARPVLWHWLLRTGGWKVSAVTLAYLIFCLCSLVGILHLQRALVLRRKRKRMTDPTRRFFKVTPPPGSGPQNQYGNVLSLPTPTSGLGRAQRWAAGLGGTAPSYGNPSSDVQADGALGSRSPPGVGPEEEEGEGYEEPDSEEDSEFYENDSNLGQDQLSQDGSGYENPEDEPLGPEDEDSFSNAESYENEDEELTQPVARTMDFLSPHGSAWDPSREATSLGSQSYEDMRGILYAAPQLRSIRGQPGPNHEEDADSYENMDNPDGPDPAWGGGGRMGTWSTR

EC50 (read off the curve) [1] [µM]	EC50 (read off the curve) [2] [µM]	Q2 % (events positive for both the CD3+ and the CD19+ cell label) [3] [%]	Q2 % (events positive for both the CD3+ and the CD19+ cell label) [4] [%]	Substance
0.03	0.03			control human IgG1 antibody
		4.91	4.91	irrelevant IgG (antibody)
